The assay concerns the target Recombinant human ACE2 protein (carrier free) (human, UniProt Q9BYF1). The experiment in a line: zeta potential.

Sequence of Recombinant human ACE2 protein (carrier free) (Q9BYF1 18-740): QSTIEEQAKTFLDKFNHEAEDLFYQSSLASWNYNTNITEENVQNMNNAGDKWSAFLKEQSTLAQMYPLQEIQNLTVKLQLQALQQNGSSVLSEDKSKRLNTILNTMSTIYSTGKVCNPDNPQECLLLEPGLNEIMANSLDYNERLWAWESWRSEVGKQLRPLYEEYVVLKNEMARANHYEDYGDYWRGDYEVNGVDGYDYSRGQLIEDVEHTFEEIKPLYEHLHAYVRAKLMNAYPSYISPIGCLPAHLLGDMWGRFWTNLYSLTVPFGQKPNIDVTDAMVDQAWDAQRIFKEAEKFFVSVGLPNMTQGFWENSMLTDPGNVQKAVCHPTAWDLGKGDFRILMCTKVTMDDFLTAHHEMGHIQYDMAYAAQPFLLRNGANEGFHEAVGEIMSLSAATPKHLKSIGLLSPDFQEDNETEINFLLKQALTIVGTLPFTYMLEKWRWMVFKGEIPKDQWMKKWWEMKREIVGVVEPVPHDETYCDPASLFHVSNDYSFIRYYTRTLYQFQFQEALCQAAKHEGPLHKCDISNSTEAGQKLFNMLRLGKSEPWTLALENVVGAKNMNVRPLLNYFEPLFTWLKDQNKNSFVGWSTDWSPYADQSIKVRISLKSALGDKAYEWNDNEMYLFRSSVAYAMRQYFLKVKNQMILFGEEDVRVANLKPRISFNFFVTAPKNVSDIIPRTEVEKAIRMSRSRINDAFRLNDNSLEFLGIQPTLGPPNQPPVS

As for VVVGKKGGGDYSHCSPLRYYPWWKCTYPDPEGGG [ACE2-binding Ligand peptide amphiphile (C12-VVVGKK-OEG4-GG-DX600)], the binding result is “binds”.

These data come from article PMC9743467 (Matter, 2022).
